Results from patent publication US20110117625, “Engineered Nucleases and Their Uses for Nucleic Acid Assembly” (published 2011).

T1: I-CreI D20N/Q47A (UniProt P05725 P05725:1-163, D20N,Q47A)
T1 sequence: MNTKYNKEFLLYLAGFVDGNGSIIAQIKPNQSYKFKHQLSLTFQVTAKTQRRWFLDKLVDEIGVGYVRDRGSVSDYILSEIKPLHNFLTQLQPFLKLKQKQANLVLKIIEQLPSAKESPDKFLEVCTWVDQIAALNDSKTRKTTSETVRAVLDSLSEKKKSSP

T2: I-SceI D44A/D145N (UniProt P03882 P03882:1-235, D44A,D145N)
T2 sequence: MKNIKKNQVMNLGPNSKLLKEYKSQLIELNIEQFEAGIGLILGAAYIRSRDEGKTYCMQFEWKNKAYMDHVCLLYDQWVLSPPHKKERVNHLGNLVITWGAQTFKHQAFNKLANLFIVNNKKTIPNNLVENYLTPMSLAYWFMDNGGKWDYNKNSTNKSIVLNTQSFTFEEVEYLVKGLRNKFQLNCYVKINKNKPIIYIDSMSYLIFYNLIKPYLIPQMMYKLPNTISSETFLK

T3: Sce7 (I-SceI D44N/D145A, non-cleaving) (UniProt P03882 P03882:1-235, D44N,D145A)
T3 sequence: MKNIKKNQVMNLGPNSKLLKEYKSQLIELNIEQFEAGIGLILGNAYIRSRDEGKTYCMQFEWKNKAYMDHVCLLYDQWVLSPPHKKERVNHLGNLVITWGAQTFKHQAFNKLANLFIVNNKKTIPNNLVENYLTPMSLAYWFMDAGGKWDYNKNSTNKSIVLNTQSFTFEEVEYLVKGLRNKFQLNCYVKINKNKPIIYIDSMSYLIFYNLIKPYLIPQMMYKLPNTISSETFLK

T4: I-SceI (wild type) (UniProt P03882 P03882:1-235)
T4 sequence: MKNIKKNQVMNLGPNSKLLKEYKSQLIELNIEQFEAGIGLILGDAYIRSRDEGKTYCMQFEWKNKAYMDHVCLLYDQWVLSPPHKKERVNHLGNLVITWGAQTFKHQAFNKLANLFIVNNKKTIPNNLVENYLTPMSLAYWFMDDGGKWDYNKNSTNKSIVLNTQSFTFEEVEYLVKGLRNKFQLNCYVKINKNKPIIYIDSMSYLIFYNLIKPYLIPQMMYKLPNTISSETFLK

B1: pSCI insert with I-SceI and I-CreI sites (142 bp) (dsDNA)
DNA 1: AATTCTGGTTCCGAAGCCTGTCCTGCACGCTAGGGATAACAGGGTAATAATATATGAATCCAAACTAGAGCGGGGCTCTTGACGTTTGGCTCAAAACGTCGTGAGACAGTTTGGTCAGTTGTAAATATCTAATATTCCAATG
DNA 2: GATCCATTGGAATATTAGATATTTACAACTGACCAAACTGTCTCACGACGTTTTGAGCCAAACGTCAAGAGCCCCGCTCTAGTTTGGATTCATATATTATTACCCTGTTATCCCTAGCGTGCAGGACAGGCTTCGGAACCAG
B2: 80-bp I-SceI site duplex (dsDNA)
DNA 1: GAATTCTGGTTCCGAAGCCTGTCCTGCACGCTAGGGATAACAGGGTAATAATATATGAATCCAAACTAGAGCGGGGCTCT
DNA 2: AGAGCCCCGCTCTAGTTTGGATTCATATATTATTACCCTGTTATCCCTAGCGTGCAGGACAGGCTTCGGAACCAGAATTC

Legend:
I-CreI D20N/Q47A = target: T1, I-CreI D20N/Q47A; experiment: EMSA; 5 nM DNA, 20 mM Tris pH 9.0, 37 C; printed D2ON; conditions: tags: 6xHis N-terminal with TEV site; chain copies: 2; EcoRI/BamHI overhangs
Experimental: (§1) Various concentrations of I-SceI or I-CreI (generally between 2.5 and 50 nM) were mixed with 5 nM DNA in 20 mM tris.HCl, 100 ug/mL bovine serum albumin, pH 8.0 (for I-SceI variants) or pH 9.0 (for I-CreI variants) in a total volume of 10 ìL. After incubation for 20 minutes at 37° C., 1 ìL of 10× DNA retardation gel loading buffer (Invitrogen) was added and the samples were loaded onto a 1 mm thick DNA retardation gel (Invitrogen). Electrophoresis was performed for 45 minutes at 175 Volts in 0.5× TBE buffer (Invitrogen). Gels were stained for 45 minutes with SYBR Gold stain (Invitrogen) and visualized by UV illumination. Densitometry was performed on a digital image of the gel to determine the relative intensities of the bands corresponding to bound and unbound DNA. Intensities of bound and unbound DNA were used to determine the concentrations of bound and free enzyme at each initial concentration. […] Binding affinities (dissociation constants, Kd) were determined by plotting the concentration of bound enzyme on the y-axis and the concentration of free enzyme on the x-axis for each data point and fitting the data to a rectangular hyperbola using standard nonlinear least-squares fitting procedures, using the equation y=([DNA]*x)/(Kd+x).

I-SceI D44A/D145N = target: T2, I-SceI D44A/D145N; experiment: EMSA; 5 nM DNA, 20 mM Tris pH 8.0, 37 C; conditions: tags: 6xHis N-terminal with TEV site; EcoRI/BamHI overhangs
Experimental: as §1

[1] = target: T3, Sce7 (I-SceI D44N/D145A, non-cleaving); experiment: EMSA; 20 mM Tris pH 9.0, 25 mM NaCl, 10 mM CaCl2, 37 C; conditions: tags: 6xHis N-terminal with TEV site
Experimental: The binding affinities for the I-SceI recognition sites were determined using a gel-shift assay and are depicted in Table 3.
To measure the dissociation constants, the binding protein of interest, at a range of concentrations between 2 and 400 nM, was incubated with 10 nM DNA substrate in 20 ìL of 20 mM Tris.HCl, pH 9.0, 25 mM NaCl, 10 mM CaCl2, 1 mM DTT, 2% glycerol, and 0.1 mg/mL BSA, for 20 minutes at 37° C. (Sce7 and CdnDI) or 42° C. (CdnDII). Two ìL of 10′ loading buffer were added to each sample, and 10 ìL of each mixture were loaded onto 6% polyacrylamide DNA retardation gels (Invitrogen), and run for 30 minutes at 175 V. The gels were stained with SYBR Gold (Invitrogen) and visualized with ultraviolet light. DNA-containing bands were quantified by densitometry as described above. Concentrations of bound and free protein were calculated from the input amount of DNA and from ratios of band intensities, and the data were fit using Origin software (Originlab, Northampton, Mass.) to the following equation: […]

I-SceI (wild type) = target: T4, I-SceI (wild type); experiment: EMSA; 20 mM Tris pH 9.0, 25 mM NaCl, 10 mM CaCl2, 37 C?; conditions: tags: 6xHis N-terminal with TEV site (as for variants)

Binder | binding result (I-CreI D20N/Q47A) | binding result (I-SceI D44A/D145N) | Kd [1] [nM] | Kd (I-SceI (wild type)) [nM]
B1 | binds | binds |  | 
B2 |  |  | 13 | 62
